# Measurements as given in patent publication US6468985B1, “Retinoblastoma protein-interacting zinc finger proteins” (The Burnham Institute, priority 1994, dated 2002).
# T1: RIZ GTPase domain (GST-G) (Rattus norvegicus, UniProt Q63755)
# T1 construct: a fragment of RIZ from amino acid position 760-949 (RIZ 760-949), containing the putative GTPase domain; made in house; E. coli XL-1 blue is printed only for pKG7.1S)
# T1 sequence (Q63755 760-949): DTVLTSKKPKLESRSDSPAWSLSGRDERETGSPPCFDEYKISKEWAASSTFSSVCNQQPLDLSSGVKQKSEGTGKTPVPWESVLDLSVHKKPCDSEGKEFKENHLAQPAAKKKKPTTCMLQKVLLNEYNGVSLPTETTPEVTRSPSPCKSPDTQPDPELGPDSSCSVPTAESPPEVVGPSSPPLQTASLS
# T2: Rb from HT1080 cell extract (Homo sapiens, UniProt P06400)
# T2 construct: endogenous in cells; host or cells: HT1080 cells (lysate)
# T2 sequence (P06400 1-928): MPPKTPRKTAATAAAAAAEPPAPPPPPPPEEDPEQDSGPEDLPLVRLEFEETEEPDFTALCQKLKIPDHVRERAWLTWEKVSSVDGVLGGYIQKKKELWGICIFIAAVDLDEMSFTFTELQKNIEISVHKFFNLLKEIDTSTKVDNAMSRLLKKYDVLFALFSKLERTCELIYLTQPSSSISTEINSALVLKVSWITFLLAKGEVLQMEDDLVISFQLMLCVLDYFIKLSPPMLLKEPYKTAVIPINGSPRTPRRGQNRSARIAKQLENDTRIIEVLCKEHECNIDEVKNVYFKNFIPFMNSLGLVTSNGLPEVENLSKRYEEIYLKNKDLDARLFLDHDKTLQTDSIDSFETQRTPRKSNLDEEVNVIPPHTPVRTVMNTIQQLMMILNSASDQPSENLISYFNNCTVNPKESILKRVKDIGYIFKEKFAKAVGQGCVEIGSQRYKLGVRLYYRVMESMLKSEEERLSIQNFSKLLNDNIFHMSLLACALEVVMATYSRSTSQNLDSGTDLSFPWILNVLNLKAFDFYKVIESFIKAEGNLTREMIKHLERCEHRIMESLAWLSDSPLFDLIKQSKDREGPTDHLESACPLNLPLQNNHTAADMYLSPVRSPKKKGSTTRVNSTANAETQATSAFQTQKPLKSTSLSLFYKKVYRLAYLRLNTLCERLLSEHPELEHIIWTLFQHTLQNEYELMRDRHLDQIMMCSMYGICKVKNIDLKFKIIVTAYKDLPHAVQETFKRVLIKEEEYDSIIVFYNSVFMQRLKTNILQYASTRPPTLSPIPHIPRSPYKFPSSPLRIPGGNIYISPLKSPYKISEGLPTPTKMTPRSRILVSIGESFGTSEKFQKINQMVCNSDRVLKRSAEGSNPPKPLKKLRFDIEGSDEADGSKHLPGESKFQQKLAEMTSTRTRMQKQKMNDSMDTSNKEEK
# T3: wild-type full length Rb (A9), 35S-labeled (UniProt P06400 2-928, limits assumed, 35S label)
# T3 construct: mature; also called wt-Rb; wild-type Rb
# T3 sequence (looked up): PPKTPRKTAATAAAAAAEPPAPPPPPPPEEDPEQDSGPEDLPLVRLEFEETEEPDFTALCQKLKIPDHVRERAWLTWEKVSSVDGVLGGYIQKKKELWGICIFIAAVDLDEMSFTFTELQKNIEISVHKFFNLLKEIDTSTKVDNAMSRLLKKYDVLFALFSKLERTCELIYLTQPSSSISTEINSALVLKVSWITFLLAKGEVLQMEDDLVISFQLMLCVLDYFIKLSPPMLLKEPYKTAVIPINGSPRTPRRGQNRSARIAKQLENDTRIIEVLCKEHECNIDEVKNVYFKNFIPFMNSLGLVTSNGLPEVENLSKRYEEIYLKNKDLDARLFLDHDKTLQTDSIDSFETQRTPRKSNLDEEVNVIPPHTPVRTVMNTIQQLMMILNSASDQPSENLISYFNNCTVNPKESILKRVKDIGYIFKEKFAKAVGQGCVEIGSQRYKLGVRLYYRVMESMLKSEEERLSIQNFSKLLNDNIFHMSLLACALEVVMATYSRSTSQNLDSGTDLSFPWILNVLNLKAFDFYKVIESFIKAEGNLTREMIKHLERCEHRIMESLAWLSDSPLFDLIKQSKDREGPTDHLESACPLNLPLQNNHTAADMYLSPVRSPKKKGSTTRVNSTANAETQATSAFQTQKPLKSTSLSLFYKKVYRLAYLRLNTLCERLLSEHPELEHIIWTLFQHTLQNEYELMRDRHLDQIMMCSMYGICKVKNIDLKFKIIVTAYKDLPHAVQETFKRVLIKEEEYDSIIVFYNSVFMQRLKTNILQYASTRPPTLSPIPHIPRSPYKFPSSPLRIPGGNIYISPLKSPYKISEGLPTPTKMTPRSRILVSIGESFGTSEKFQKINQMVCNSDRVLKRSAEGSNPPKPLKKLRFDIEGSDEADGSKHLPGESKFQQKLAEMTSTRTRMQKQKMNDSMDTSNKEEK
# T4: 56 kD fragment of Rb produced by bacterial expression from p56Rb plasmid (UniProt P06400 379-928)
# T4 construct: range 379-928; Expressed in E. coli; also called 56 kD Rb
# T4 sequence (looked up): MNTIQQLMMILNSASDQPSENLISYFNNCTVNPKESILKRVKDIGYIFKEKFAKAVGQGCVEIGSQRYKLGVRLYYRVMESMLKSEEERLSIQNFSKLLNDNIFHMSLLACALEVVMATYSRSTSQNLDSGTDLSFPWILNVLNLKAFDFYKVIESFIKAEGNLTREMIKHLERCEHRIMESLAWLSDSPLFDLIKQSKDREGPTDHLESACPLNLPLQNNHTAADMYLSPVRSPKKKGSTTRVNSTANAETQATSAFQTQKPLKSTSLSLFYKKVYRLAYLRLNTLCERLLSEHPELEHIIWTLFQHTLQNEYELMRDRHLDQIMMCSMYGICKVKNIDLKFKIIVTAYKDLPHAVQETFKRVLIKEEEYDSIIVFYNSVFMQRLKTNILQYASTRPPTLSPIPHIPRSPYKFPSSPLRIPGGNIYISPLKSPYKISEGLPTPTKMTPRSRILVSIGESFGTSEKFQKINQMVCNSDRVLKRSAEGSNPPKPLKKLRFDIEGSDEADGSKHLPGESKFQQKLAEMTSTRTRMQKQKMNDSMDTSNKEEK
# B1: glutathionine S-transferase (GST) fused to a fragment of RIZ from amino acid position 245-573 (other)
# chain: CEPQPEVDGKQEVTDCEVNDVEEEELEEEEELEEEEEEELGEDGVEEADMPNESSAKEPEIRCEEKPEDLLEEPQSMSNEAREDSPDVTPPPHTPRAREEANGDVLETFMFPCQHCERKFATKQGLERHMHIHISTINHAFKCKYCGKRFGTQINRRRHERRHETGLKRRPSMTLQSSEDPDDGKGENVTSKDESSPPQLGQDCLILNSEKTSQEVLNSSFVEENGEVKELHPCKYCKKVFGTHTNMRRHQRRVHERHLIPKGVRRKGGLLEEPQPPAEQAPPSQNVYVPSTEPEEEGETDDVYIMDISSNISENLNYYIDGKIQTNSS
# notes: Expressed from pKG7.1S in E. coli and purified on glutathione agarose; also called GSTZ13; not shown: glutathione S-transferase from vector pGEX-KG
# B2: RIZ (215-462) with the GST portion removed by thrombin cleavage (other)
# chain: PLASAPEQPAPLPEVGNQDAVPQVAIPLPACEPQPEVDGKQEVTDCEVNDVEEEELEEEEELEEEEEEELGEDGVEEADMPNESSAKEPEIRCEEKPEDLLEEPQSMSNEAREDSPDVTPPPHTPRAREEANGDVLETFMFPCQHCERKFATKQGLERHMHIHISTINHAFKCKYCGKRFGTQINRRRHERRHETGLKRRPSMTLQSSEDPDDGKGENVTSKDESSPPQLGQDCLILNSEKTSQEVLN
# B3: 35S labeled fragment of RIZ from amino acid position 1-575 (other)
# chain: MHQNTESVAATETLAEVPEHVLRGLPEEVRLFPSAVDKTRIGVWATKPILKGKKFGPFVGDKKKRSQVRNNVYMWEVYYPNLGWMCIDATDPEKGNWLRYVNWACSGEEQNLFPLEINRAIYYKTLKPIAPGEELLVWYNGEDNPEIAAAIEEERASARSKRSSPKSRRGKKKSHENKNKGIRTHPTQLKASELDSTFANMRGSAEGPKEEDERPLASAPEQPAPLPEVGNQDAVPQVAIPLPACEPQPEVDGKQEVTDCEVNDVEEEELEEEEELEEEEEEELGEDGVEEADMPNESSAKEPEIRCEEKPEDLLEEPQSMSNEAREDSPDVTPPPHTPRAREEANGDVLETFMFPCQHCERKFATKQGLERHMHIHISTINHAFKCKYCGKRFGTQINRRRHERRHETGLKRRPSMTLQSSEDPDDGKGENVTSKDESSPPQLGQDCLILNSEKTSQEVLNSSFVEENGEVKELHPCKYCKKVFGTHTNMRRHQRRVHERHLIPKGVRRKGGLLEEPQPPAEQAPPSQNVYVPSTEPEEEGETDDVYIMDISSNISENLNYYIDGKIQTNSSTS
# modifications: 35S label
# notes: In vitro transcribed/translated from Spe I linearized template
# B4: RIZ-Pep, 11 amino acid peptide EIRCEEKPEDL representing a portion of the cr2 motif of RIZ (peptide)
# peptide: EIRCEEKPEDL
# notes: Synthetic peptide; also called cr2 peptide
# Key:
# [1] = target: T1, RIZ GTPase domain (GST-G); test: competition of unlabeled nucleotides for GTP binding of RIZ GTPase domain; settings: 20 mM unlabeled nucleotide, 1 hr before α-32P-GTP
# Method: The GTPase domain of RIZ, which was defined by sequence homology, was evaluated to determine if it was functionally active. For these studies, a fragment of RIZ from amino acid position 760-949 (RIZ 760-949), containing the putative GTPase domain was expressed as a fusion to GST from the plasmid pKG-G and tested for binding to radiolabeled nucleotides. pKG-G was produced by PCR amplification of the nucleotide sequence encoding RIZ (760-949) using primers 5′-TCTCCACAGC ACAGCCCT-3′ (SEQ ID NO: 15), and 5′-GGATAAGGAG GCTGTCTG-3′ (SEQ ID NO: 16) and PCMVRIZ as template. The fragment was cloned into pBSK+ and then into PGEX-KG, expressed and purified by glutathionine-agarose as described above. GST was also expressed from vector PGEX-KG and purified as described above.
# To measure GTP-binding, 0.5 μg of GST-RIZ or control GST proteins were separated by SDS-PAGE and blotted onto nitrocellulose. Proteins were renatured in GTP-binding buffer (50 mM Tris-HCl, pH8, 100 mM KCl, 10% glycerol, 0.1% Triton X-100, and 2 mM […]). The nitrocellulose was incubated for 30 min in GTP-binding buffer and then for 2 hr in GTP-binding buffer containing 1 μM α-^32P-GTP (800 Ci/mmol). The nitrocellulose was washed 5 times in GTP-binding buffer, dried and autoradiographed. In some samples, 20 mM unlabeled nucleotides were incubated with the nitrocellulose for 1 hr prior to the addition of α-^32P-GTP.
# [2] = target: T2, Rb from HT1080 cell extract; test: GST-RIZ (215-462) glutathione-agarose pull-down of Rb from cell extract, anti-Rb immunoblot; type: binding; settings: cell lysate from 293 stably transfected to express E1A as source
# Method: Rat RIZ was tested for binding to Rb in HT1080 cells (ATCC #ICCL 121). The cells were grown in DMEM supplemented with […]. Cells were lysed in ELB buffer (50 mM HEPES, pH 7.5, 250 mM NaCl, 0.1% NP-40) supplemented with 5 mM EDTA, 50 mM NaF, 1 mM Na orthovanadate, 1 mM of DTT, aprotinin, leupeptin, and PMSF. The lysate was cleared of cell debris by centrifugation at 12,000 rpm for 10 min in a microfuge.
# Binding between 4 μg GST-RIZ (215-462) and Rb from HT1080 cell extract was evaluated by first mixing the two, then binding GST-RIZ and any associated Rb to glutathione-agarose beads. The beads were washed in binding buffer and the bound complexes were eluted by boiling in SDS buffer and analyzed by immunoblotting with anti-Rb antiserum. Immunoblotting was performed by standard techniques (see, for example, Harlow and Lane, supra, 1988).
# [3] = target: T3, wild-type full length Rb (A9), …; test: immunoprecipitation with anti-RIZ antiserum, SDS-PAGE, autoradiography
# [4] = target: T3, wild-type full length Rb (A9), …; test: 35S-labeled full-length Rb preincubated with RIZ (215-462), immunoprecipitated with anti-ce1
# [5] = target: T3, wild-type full length Rb (A9), …; test: preformed complex tested with anti-ce1
# [6] = target: T4, 56 kD fragment of Rb produced by …; test: peptide competition against labeled RIZ (1-575) for 56 kD Rb
molecule,measurement,setting,value
Nc1ncnc2c1ncn2[C@@H]1O[C@H](COP(=O)(O)OP(=O)(O)OP(=O)(O)O)[C@@H](O)[C@H]1O [ATP],effect of excess unlabeled nucleotide on binding of RIZ GTPase to radiolabeled GTP,[1],did not effect binding
Nc1ccn([C@@H]2O[C@H](COP(=O)(O)OP(=O)(O)OP(=O)(O)O)[C@@H](O)[C@H]2O)c(=O)n1 [CTP],effect of excess unlabeled nucleotide on binding of RIZ GTPase to radiolabeled GTP,[1],did not effect binding
Nc1nc2c(ncn2[C@@H]2O[C@H](COP(=O)(O)OP(=O)(O)OP(=O)(O)O)[C@@H](O)[C@H]2O)c(=O)[nH]1 [GTP],effect of excess unlabeled nucleotide on binding of RIZ GTPase to radiolabeled GTP,[1],inhibited binding
O=c1ccn([C@@H]2O[C@H](COP(=O)(O)OP(=O)(O)OP(=O)(O)O)[C@@H](O)[C@H]2O)c(=O)[nH]1 [UTP],effect of excess unlabeled nucleotide on binding of RIZ GTPase to radiolabeled GTP,[1],did not effect binding
E1A: adenoviral E1A protein; source was cell lysate from 293 stably transfected to express E1A [reference compound],inhibition of binding of GST-RIZ (215-462) to hypophosphorylated Rb,[2],inhibited binding
B1,binding result,[3],binds
B2,binding result,[4],binds
B3,binding result,[5],binds
B4,binding result,[6],binds
